In patent US20220389394A1:
Read-outs that look alike come from different tables or passages of the source.

Tests used:
[1] = target: mouse FLT3 on the M1 cell line (mouse) (UniProt Q00342); experiment: cell-based or functional assay
[2] = target: human FLT3 on the AML5 cell line (human) (UniProt P36888); experiment: cell-based or functional assay
[3] = target: recombinant human FcRn (human) (UniProt P55899); experiment: ELISA; recombinant human FcRn coated, serially diluted test article, anti-human (H+L)-HRP, 4PL fit
[4] = target: biotinylated recombinant human FcγRI protein (Sino Biological) (human) (UniProt P12314); experiment: AlphaScreen competition; biotinylated FcγRI, competitor human IgG acceptor beads, 4PL fit
[5] = target: recombinant human C1q protein (Fitzgerald) (human) (UniProt P02745); experiment: ELISA; serially diluted test article immobilized, recombinant human C1q added, anti-C1q-HRP, 4PL fit
[6] = target: biotinylated recombinant human FcγRIIIa (Val 176 variant) protein (Sino Biological) (human) (UniProt P08637); experiment: AlphaScreen competition; biotinylated FcγRIIIa (Val 176 variant), competitor human IgG acceptor beads, 4PL fit
[7] = target: biotinylated recombinant human FcγRIIIa (Val 176 variant) protein (Sino Biological) (human) (UniProt P08637); experiment: as above; remark: listed apart in the source
[8] = target: biotinylated recombinant human FcγRI protein (Sino Biological) (human) (UniProt P12314); experiment: AlphaScreen competition; biotinylated FcγRI, competitor human IgG acceptor beads, 4PL fit; remark: listed apart in the source
[9] = target: recombinant human C1q protein (Fitzgerald) (human) (UniProt P02745); experiment: ELISA; serially diluted test article immobilized, recombinant human C1q added, anti-C1q-HRP, 4PL fit; remark: listed apart in the source

biotinylated recombinant human FcγRIIIa (Val 176 variant) protein (Sino Biological) (human), sequence (P08637 other isoform, or with tags, fused parts or gaps mutant limits assumed): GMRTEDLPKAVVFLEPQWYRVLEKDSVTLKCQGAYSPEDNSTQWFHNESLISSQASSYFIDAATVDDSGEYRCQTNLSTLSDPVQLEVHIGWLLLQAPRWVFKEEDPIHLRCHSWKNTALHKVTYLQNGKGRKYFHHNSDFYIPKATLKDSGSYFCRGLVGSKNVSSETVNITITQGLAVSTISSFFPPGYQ
biotinylated recombinant human FcγRI protein (Sino Biological) (human), sequence (P12314 16-288 limits assumed): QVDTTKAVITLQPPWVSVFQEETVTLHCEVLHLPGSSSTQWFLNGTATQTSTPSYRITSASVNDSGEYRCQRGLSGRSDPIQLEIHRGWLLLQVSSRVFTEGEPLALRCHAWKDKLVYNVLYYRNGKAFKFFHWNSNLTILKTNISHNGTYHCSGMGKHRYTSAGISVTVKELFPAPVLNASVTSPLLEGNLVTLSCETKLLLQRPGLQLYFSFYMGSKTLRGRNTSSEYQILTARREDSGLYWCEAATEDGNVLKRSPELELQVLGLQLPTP
mouse FLT3 on the M1 cell line (mouse), sequence (Q00342 28-1000): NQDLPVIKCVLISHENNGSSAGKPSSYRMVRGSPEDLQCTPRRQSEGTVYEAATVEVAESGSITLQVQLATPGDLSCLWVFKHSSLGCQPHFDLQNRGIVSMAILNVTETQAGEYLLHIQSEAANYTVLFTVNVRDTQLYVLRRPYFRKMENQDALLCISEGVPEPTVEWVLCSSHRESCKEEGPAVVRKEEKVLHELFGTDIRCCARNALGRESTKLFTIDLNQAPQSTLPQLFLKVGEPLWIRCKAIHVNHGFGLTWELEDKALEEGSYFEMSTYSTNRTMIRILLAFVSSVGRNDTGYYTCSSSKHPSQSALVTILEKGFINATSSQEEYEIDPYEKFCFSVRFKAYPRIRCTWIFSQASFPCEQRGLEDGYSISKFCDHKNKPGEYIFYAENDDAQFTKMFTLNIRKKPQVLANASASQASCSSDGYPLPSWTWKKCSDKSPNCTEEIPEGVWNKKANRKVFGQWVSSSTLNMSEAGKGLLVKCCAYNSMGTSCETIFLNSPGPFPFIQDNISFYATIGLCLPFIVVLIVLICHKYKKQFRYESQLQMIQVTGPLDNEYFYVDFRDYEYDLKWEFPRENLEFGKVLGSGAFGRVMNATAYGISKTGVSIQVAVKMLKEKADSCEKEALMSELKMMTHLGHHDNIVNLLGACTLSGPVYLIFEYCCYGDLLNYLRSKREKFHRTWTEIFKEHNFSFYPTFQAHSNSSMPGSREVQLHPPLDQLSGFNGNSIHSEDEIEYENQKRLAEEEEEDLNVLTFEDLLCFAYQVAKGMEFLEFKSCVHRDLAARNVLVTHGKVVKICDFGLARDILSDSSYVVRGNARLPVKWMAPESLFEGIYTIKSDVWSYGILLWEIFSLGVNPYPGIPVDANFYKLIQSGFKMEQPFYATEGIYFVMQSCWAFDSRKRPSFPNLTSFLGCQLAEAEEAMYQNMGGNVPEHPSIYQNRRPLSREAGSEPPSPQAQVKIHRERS
recombinant human C1q protein (Fitzgerald) (human), sequence (P02745 23-245 limits assumed, chain 1 of 3): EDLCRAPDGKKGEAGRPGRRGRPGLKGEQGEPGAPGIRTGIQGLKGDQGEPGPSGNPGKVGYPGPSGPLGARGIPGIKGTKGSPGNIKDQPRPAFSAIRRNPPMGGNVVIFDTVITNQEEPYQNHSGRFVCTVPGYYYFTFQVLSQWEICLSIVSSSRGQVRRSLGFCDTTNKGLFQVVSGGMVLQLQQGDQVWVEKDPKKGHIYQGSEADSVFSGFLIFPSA
recombinant human C1q protein (Fitzgerald) (human), sequence (P02746 28-253 limits assumed, chain 2 of 3, further chain): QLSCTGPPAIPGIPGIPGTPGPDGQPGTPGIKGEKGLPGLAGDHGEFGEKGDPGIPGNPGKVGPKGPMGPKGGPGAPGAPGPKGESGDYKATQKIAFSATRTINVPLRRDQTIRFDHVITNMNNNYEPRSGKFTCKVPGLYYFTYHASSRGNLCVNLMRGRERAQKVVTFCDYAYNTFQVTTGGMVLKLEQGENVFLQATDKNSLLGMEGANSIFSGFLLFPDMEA
recombinant human C1q protein (Fitzgerald) (human), sequence (P02747 29-245 limits assumed, chain 3 of 3, further chain): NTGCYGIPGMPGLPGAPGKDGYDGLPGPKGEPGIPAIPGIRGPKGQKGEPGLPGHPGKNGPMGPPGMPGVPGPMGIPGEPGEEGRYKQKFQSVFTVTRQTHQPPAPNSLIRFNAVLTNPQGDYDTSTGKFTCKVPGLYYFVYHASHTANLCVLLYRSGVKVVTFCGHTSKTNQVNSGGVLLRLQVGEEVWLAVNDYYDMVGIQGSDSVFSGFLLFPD
human FLT3 on the AML5 cell line (human), sequence (P36888 27-993): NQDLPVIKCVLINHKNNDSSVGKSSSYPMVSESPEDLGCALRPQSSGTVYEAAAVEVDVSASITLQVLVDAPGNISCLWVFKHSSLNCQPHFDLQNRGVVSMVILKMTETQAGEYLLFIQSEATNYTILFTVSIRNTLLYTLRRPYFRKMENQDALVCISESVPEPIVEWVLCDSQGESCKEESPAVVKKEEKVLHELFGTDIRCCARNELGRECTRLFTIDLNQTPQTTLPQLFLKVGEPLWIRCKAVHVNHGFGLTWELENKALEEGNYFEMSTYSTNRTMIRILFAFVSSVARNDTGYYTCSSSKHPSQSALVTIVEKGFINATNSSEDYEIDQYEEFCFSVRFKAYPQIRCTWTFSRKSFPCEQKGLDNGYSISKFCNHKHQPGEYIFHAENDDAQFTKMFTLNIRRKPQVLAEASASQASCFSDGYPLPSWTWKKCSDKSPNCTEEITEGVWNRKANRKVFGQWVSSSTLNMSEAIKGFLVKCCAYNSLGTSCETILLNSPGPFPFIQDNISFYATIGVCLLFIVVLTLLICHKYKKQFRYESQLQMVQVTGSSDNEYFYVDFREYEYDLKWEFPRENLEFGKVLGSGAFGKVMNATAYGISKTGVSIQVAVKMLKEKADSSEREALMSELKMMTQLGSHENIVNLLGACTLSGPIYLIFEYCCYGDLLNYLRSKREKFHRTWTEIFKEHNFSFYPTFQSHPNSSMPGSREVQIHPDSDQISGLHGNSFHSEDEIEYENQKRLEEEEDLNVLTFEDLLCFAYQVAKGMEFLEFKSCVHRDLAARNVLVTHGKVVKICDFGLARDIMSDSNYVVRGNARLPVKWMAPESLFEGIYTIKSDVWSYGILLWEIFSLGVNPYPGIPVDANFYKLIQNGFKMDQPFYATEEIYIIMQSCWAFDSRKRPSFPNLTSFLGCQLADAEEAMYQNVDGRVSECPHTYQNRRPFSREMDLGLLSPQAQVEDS

Row | EC50 (nM), M1 IL-6 release assay [1] [nM] | Emax (pg/ml), M1 IL-6 release assay [1] [pg/mL] | EC50 (nM), AML5 proliferation [2] [nM] | EC50 [3] [nM] | EC50 [4] [nM] | EC50 [5] [nM] | EC50 [6] [nM] | EC50 [7] [nM] | EC50 [8] [nM] | EC50 [9] [nM] | Substance
1 | 0.117 | 517 |  |  |  |  |  |  |  |  | recombinant human FLT3-ligand human IgG1 fusion protein (Fc fusion)
2 | 0.024 | 392 | 0.039 |  |  |  |  |  |  |  | recombinant human FLT3-ligand (from UniProt P49771 27-185)
3 |  |  |  | 25.9 | 14.5 | 13.7 | 326 | 368 | 13.6 | 16.7 | human IgG4 isotype antibody
4 |  |  |  | 4.46 | 5.25 |  | 32.1 | 38.8 | 4.44 |  | human IgG1 isotype antibody
